According to paper PMC11790492 (Nature Microbiology, 2024):

Key:
[1] = molecular target: KorB (plasmid RK2, expressed in Escherichia coli) (UniProt P07674); assay: BLI; conditions: BLI and C-trap buffers not given in the material, crystals 10 mM Tris-HCl, 150 mM NaCl pH 8.0 then 1.95 M ammonium sulfate, 0.1 M NaOAc pH 4.6, Eσ70 binding …
[2] = molecular target: T1, KorB (Escherichia coli, UniProt P07674); assay: ITC (weak, affinity could not be fitted); format: binding; design: C-terminally His-tagged KorB (WT)
[3] = molecular target: T1, KorB; assay: ITC; also OB DNA-stimulated CTPase assay; format: binding; design: C-terminally His-tagged KorB (WT)
[4] = molecular target: T2, Noc (Bacillus subtilis, UniProt P37524); assay: CTP hydrolysis rate by phosphate release assay (EnzChek), […] CTP; format: biochemical
T2 sequence (P37524 1-283): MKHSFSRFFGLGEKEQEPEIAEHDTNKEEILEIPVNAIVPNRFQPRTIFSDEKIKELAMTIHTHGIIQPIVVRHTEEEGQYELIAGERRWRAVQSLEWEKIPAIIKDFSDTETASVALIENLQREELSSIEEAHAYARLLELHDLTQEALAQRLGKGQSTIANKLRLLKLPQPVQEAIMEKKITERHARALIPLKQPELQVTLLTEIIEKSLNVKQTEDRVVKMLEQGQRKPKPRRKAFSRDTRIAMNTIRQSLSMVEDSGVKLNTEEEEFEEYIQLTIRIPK

[5] = molecular target: T3, ParB (Caulobacter vibrioides, UniProt P0CAV8); assay: as above; format: biochemical
T3 sequence (P0CAV8 1-304): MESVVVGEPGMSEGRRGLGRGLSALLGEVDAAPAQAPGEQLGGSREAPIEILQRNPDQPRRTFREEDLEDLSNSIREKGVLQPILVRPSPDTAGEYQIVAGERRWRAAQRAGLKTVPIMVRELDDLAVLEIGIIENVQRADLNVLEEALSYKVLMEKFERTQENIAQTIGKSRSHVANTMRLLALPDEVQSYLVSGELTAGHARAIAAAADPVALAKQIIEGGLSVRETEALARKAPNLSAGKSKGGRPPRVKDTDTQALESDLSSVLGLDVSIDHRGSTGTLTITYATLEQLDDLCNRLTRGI

[6] = molecular target: T1, KorB; assay: ITC; […] Å co-crystal structure (ligand modelled as CTP, sulfur position not assignable); format: binding; design: ITC: C-terminally His-tagged KorB; crystal: KorB∆N30∆CTD (lacks the 30 N-terminal amino acids, the linker and the CTD)
[7] = molecular target: KorB (wild type), C-terminally His-tagged (plasmid RK2 (Escherichia coli)) (UniProt P07674)
[8] = system: AF647-KorA (plasmid RK2); assay: optical tweezers residence time; conditions: BLI and C-trap buffers not given in the material, crystals 10 mM Tris-HCl, 150 mM NaCl pH 8.0 then 1.95 M ammonium sulfate, 0.1 M NaOAc pH 4.6, Eσ70 binding …
[9] = system: AF647-KorA (Y84A) (plasmid RK2); assay: optical tweezers residence time; conditions: unlabelled KorB, 2 mM CTP; BLI and C-trap buffers not given in the material; crystals 10 mM Tris-HCl, 150 mM NaCl pH 8.0 then 1.95 M ammonium sulfate, 0.1 M NaOAc pH 4.6; Eσ70 binding …
[10] = molecular target: KorBΔN30ΔCTD;KorA (plasmid RK2;plasmid RK2, UniProt P07674;P03052 31-252;1-101, |); assay: X-ray crystallography; no CTPγS added; sulfates; BLI and C-trap buffers not given in the material; crystals 10 mM Tris-HCl, 150 mM NaCl pH 8.0 then 1.95 M ammonium sulfate, 0.1 M NaOAc pH 4.6; Eσ70 binding and; conditions: protein: recombinant;recombinant; tags: His-tagged;C-terminal His6 (pET21b); chain copies: 2;2; blunt, self-complementary, 2 copies
[11] = molecular target: E. coli RNAP core;σ70 (Escherichia coli;Escherichia coli, UniProt P0A7Z4;P0A8V2;P0A8T7;P0A800;P00579 1-329;1-1342;1-1407;2-91;1-613, |); assay: native MS; no KorA/KorB; BLI and C-trap buffers not given in the material; crystals 10 mM Tris-HCl, 150 mM NaCl pH 8.0 then 1.95 M ammonium sulfate, 0.1 M NaOAc pH 4.6; Eσ70 binding and; conditions: protein: recombinant;recombinant; tags: His10-PPX;His-SUMO, cleaved; chain copies: 2;1;1;1;1; blunt
[12] = molecular target: T4, KorB (wild type), C-terminally His-tagged (plasmid RK2 (Escherichia coli), UniProt P07674 1-358); assay: cell-based or functional assay
T4 sequence (looked up): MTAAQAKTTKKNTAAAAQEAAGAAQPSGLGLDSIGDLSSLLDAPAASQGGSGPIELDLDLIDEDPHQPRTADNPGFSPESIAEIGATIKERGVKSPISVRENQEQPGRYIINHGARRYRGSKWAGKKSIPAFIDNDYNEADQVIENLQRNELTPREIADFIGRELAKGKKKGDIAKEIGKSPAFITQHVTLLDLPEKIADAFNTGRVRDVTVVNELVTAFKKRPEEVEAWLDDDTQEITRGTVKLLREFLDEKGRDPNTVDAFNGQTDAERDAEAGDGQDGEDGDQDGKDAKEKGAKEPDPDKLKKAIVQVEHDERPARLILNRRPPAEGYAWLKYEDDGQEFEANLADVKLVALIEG

[13] = molecular target: the molecule itself; assay: crystal structure; KorBΔN30ΔCTD–KorA complex with 14 bp OA DNA duplex, no CTPγS added; 2.7 Å; two KorA, two KorB subunits and one DNA duplex in the asymmetric unit
[14] = molecular target: T5, KorB (wild type), C-terminally His-tagged (plasmid RK2 (Escherichia coli), UniProt P07674 1-358); assay: ITC
T5 chain: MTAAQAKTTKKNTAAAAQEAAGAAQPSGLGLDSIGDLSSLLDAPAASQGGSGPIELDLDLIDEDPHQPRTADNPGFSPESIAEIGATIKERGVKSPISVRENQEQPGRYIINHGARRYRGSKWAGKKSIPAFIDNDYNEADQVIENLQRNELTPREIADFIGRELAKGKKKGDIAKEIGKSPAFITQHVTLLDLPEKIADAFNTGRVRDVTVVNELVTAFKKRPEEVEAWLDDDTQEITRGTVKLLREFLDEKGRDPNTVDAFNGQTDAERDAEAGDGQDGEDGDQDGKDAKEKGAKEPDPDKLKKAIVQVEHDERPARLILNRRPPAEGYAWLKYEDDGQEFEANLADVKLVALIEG

[15] = molecular target: the molecule itself; assay: cross-linking; BMOE (1 mM) cysteine cross-linking of 8 µM KorB variant dimer ± 1 mM CTP or CTPγS ± 24 bp OB or scrambled DNA; 10 mM Tris–HCl pH 7.4, 100 mM NaCl, 1 mM MgCl2; room temperature; SDS–PAGE, band quantification

40-bp OB DNA
Kd ([1]; 1 mM CTP): 60 µM
Kd ([1]; no CTP): 0.14 µM

Nc1ccn([C@@H]2O[C@H](COP(=O)(O)OP(=O)(O)O)[C@@H](O)[C@H]2O)c(=O)n1 [CDP]
ITC (weak, affinity could not be fitted) [2]: KorB binding to CDP was qualitatively much weaker than to CTP, but the data precluded the estimation

Nc1ccn([C@@H]2O[C@H](COP(=O)(O)OP(=O)(O)OP(=O)(O)O)[C@@H](O)[C@H]2O)c(=O)n1 [CTP]
Kd [3]: 4.5 ± 0.5 µM
CTP hydrolysis rate by phosphate release assay (EnzChek), 1 mM CTP [4]: CTP hydrolysis rates of KorB, C. crescentus ParB, and B. subtilis Noc were measured by continuous detection
CTP hydrolysis rate by phosphate release assay (EnzChek), 1 mM CTP [5]: CTP hydrolysis rates of KorB, C. crescentus ParB, and B. subtilis Noc were measured by continuous detection

Nc1ccn([C@@H]2O[C@H](COP(=O)(O)OP(=O)(O)OP(O)(O)=S)[C@@H](O)[C@H]2O)c(=O)n1 [CTPɣS, cytidine-5′-(3-thiotriphosphate)]
Kd [6]: 0.4 ± 0.1 µM

AF647–KorA: KorA with an extra C-terminal cysteine, C-terminally His-tagged, labelled with Alexa Fluor 647 (from UniProt P03052) (natural protein)
change of the residence time of AF647–KorA at OA on DNA (optical tweezers) with unlabelled KorB and CTP, against KorA with or without apo-KorB [7]: 4.5 fold

C-trap DNA 8xOB + 1xOA (22,394 bp; also ligated as 44.8 kb tandem)
binding ([8]; unlabelled KorB (F249A), 2 mM CTP): 3.07 s
binding ([8]; unlabelled KorB, 2 mM CTP): 10.1 s
binding ([8]; unlabelled KorB, no CTP): 2.61 s
binding [9]: 3.72 s

B1: 14 bp OA (dsDNA)
DNA 1: TGTTTAGCTAAACA
DNA 2: TGTTTAGCTAAACA
binding result [10]: binds

B2: PkorA 100 bp (nMS) (dsDNA)
DNA 1: GTTACGCCAAGGACGAGTTTTAGCGGCTAAAGGTGTTGACGTGCGAGAAATGTTTAGCTAAACTTCTCTCATGTGCTGGCGGCTGTCACCGCTATGTTCA
DNA 2: TGAACATAGCGGTGACAGCCGCCAGCACATGAGAGAAGTTTAGCTAAACATTTCTCGCACGTCAACACCTTTAGCCGCTAAAACTCGTCCTTGGCGTAAC
binding result [11]: binds

B3: KorA (wild type), C-terminally His-tagged (natural protein, plasmid RK2 (Escherichia coli))
chain: MKKRLTESQFQEAIQGLEVGQQTIEIARGVLVDGKPQATFATSLGLTRGAVSQAVHRVWAAFEDKNLPEGYARVTAVLPEHQAYIVRKWEADAKKKQETKR
notes: KorA of plasmid RK2, wild type; cysteine-less; expected monomer mass in nMS 12,825.6 Da; also called KorA (WT); KorA–(his)6; source: E. coli Rosetta (BL21 DE3) pLysS, pET21b, purified (HisTrap, Heparin, Superdex 75); not shown: His6, C-terminal, kept
fold of repression of a promoter–xylE reporter (OB 1.5 kb upstream of the core promoter, OA over the −10 element) in E. coli with WT KorA and WT KorB co-expressed [12]: ~38000 fold
binding result [13]: binds
Kd [14]: 4.2 µM

B4: KorB (K351C), C-terminally His-tagged (natural protein)
chain: MTAAQAKTTKKNTAAAAQEAAGAAQPSGLGLDSIGDLSSLLDAPAASQGGSGPIELDLDLIDEDPHQPRTADNPGFSPESIAEIGATIKERGVKSPISVRENQEQPGRYIINHGARRYRGSKWAGKKSIPAFIDNDYNEADQVIENLQRNELTPREIADFIGRELAKGKKKGDIAKEIGKSPAFITQHVTLLDLPEKIADAFNTGRVRDVTVVNELVTAFKKRPEEVEAWLDDDTQEITRGTVKLLREFLDEKGRDPNTVDAFNGQTDAERDAEAGDGQDGEDGDQDGKDAKEKGAKEPDPDKLKKAIVQVEHDERPARLILNRRPPAEGYAWLKYEDDGQEFEANLADVCLVALIEG
binding result [15]: binds
